Source: paper PMC5467213, “Architecture of the RNA polymerase II-Paf1C-TFIIS transcription elongation complex” (Nature Communications, 2017)

T1: Ctr9-ΔC913 (S. cerevisiae, UniProt P89105 1-913)
T1 construct: Ctr9, S. cerevisiae, variant lacking 164 amino acids at its C terminus (Ctr9-ΔC913); also called Ctr9 (in the Pol II-Paf1C-TFIIS EC); source: E. coli BL21 CodonPlus(DE3)RIL, coexpressed with the other subunits; in lysate and purified as part of Paf1C-Ctr9-ΔC913
T1 sequence (looked up): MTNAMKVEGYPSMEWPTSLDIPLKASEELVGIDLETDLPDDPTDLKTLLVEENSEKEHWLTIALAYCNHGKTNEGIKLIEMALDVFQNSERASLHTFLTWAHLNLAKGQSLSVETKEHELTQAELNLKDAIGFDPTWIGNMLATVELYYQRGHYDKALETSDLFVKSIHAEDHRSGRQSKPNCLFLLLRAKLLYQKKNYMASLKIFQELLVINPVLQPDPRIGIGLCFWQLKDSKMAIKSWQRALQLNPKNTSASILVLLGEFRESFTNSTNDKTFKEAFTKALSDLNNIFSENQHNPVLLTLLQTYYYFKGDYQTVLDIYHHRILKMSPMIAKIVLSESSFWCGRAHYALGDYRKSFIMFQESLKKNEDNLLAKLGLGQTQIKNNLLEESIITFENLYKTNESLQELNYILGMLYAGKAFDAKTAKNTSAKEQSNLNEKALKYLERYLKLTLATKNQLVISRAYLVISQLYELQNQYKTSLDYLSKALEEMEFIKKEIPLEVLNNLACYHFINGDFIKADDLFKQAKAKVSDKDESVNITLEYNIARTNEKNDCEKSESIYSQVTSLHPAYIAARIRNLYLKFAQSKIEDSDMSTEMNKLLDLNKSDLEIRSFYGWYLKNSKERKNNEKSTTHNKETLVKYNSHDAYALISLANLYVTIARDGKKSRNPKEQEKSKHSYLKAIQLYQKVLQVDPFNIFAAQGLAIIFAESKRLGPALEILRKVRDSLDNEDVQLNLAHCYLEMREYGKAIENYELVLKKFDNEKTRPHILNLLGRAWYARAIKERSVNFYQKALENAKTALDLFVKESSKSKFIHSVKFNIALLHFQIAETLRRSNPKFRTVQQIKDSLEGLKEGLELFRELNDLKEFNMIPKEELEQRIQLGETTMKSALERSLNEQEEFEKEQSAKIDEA

T2: Ctr9 (full length, C-terminal hexahistidine tag) (S. cerevisiae, UniProt P89105 1-1077)
T2 construct: Ctr9, S. cerevisiae, full length, amplified from genomic DNA, in pET24b; source: E. coli BL21 CodonPlus(DE3)RIL, coexpressed with the other subunits; in lysate and purified as part of Paf1C; not shown: His6, C-terminal, kept
T2 sequence (looked up): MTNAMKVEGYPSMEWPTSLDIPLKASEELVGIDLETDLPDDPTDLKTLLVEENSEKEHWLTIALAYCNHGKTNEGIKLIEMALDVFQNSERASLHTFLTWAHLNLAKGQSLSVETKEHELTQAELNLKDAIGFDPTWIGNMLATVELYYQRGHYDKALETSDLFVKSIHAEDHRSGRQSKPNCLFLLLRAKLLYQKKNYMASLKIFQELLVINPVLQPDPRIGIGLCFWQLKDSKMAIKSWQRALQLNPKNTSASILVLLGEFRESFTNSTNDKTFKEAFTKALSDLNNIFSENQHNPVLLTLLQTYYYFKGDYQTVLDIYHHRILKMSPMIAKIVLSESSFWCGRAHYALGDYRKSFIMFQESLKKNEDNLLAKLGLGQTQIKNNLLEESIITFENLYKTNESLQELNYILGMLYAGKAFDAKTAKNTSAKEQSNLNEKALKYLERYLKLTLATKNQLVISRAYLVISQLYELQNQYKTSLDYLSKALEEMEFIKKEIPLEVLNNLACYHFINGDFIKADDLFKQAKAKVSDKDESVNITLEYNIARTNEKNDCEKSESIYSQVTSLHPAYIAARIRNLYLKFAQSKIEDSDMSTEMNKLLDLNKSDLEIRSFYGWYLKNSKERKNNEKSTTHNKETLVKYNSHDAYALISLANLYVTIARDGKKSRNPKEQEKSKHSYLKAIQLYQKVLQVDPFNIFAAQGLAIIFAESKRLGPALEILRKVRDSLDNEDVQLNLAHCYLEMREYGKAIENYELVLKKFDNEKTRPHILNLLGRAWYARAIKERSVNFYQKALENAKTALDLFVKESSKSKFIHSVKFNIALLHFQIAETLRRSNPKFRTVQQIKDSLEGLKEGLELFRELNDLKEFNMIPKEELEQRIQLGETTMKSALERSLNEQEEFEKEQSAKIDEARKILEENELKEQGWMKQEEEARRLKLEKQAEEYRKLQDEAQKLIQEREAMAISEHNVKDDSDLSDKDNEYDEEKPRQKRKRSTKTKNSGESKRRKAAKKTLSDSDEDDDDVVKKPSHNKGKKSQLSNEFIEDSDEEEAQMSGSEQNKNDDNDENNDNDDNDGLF

B1: Cdc73 (natural protein, S. cerevisiae, UniProt Q06697 1-393, looked up)
chain: MANSLDRLREHLKNGDKLVLKNNEGQSTDDITKATMVETLSSDGSTQDSFPLNEETEIEIDGSLVQLRIIVHCWMNKDSSAADYLADCQNKQLTNVSFLQRTDLINWLSGNTESSQYLKAPGQKGETSDKVDIENKTLAGELSTVKSTTSASLENDSEVSDPVVVETMKHERILVDHNSALRGAKPINFGYLIKDAELKLVQSIKGSLRGSKLPPGHKGAHGRISKTNGSSGGPRKDPIILIPSAASSILTVANIKQFLLESKYVNPRNLPSVPNGLVNIEKNFERISRPIRFIIVDNTRMFTKPEYWDRVVAIFTTGHTWQFNNYQWNSPQELFQRCKGYYFHFAGDSVPQHVQQWNVEKVELDKNKRFKDVEVVRYFWHSLEKELISRGYR
notes: Cdc73, S. cerevisiae, full length, amplified from genomic DNA; source: E. coli BL21 CodonPlus(DE3)RIL, coexpressed with the other subunits; in lysate and purified as part of Paf1C
B2: Leo1 (natural protein, S. cerevisiae, UniProt P38439 1-464, looked up)
chain: MSSESPQDQPQKEQISNNVGVTTNSTSNEETSRSQDDNVKEVNGNDDTKEEEQEEDAELDDLFGDDNDDDDDDDVKKSETEKSDSDSDEDDEGENINHRSRHRESLGLDDDEAEEQAMYTRKFYGEDANNFSDQDETTHTFKEENVELVRHIIPSKANVNETASHNEIFYARIPNFLTIDPIPFDPPSFEAKVNERASNSASREDQLDDRLIDENTVRWRYSRDKDQHVFKESNTQIVQWSDGTYSLKVGEECTDILVNDTSNTFLTVSHDQQELIQCYEGGEIKKTLMFIPTSTNSKIHQKLSKAVIRRNQRQSKGPGTYIVSMDPEVEKKELERKQSQILRDRRRRQLKEKEKQESPDAAFETGFRKQNSPTTYGASRRNEYEEDDFLVDDDEEEEAAFDDEEDDNEEEEEEEDADEENASRLRNLKREGAAMYREEEEEEKDRSETKRRRVAVIEDDEDED
notes: Leo1, S. cerevisiae, open reading frame chemically synthesized (codon-optimised), in pCDFDuet-1; source: E. coli BL21 CodonPlus(DE3)RIL, coexpressed with the other subunits; in lysate and purified as part of Paf1C
B3: Rpb3 (Pol II subunit) (natural protein, yeast)
chain: MSEEGPQVKIREASKDNVDFILSNVDLAMANSLRRVMIAEIPTLAIDSVEVETNTTVLADEFIAHRLGLIPLQSMDIEQLEYSRDCFCEDHCDKCSVVLTLQAFGESESTTNVYSKDLVIVSNLMGRNIGHPIIQDKEGNGVLICKLRKGQELKLTCVAKKGIAKEHAKWGPAAAIEFEYDPWNKLKHTDYWYEQDSAKEWPQSKNCEYEDPPNEGDPFDYKAQADTFYMNVESVGSIPVDQVVVRGIDTLQKKVASILLALTQMDQDKVNFASGDNNTASNMLGSNEDVMMTGAEQDPYSNASQMGNTGSGGYDNAW
notes: Rpb3, subunit of yeast Pol II; source: part of purified Pol II
B4: Rpb11 (Pol II subunit) (natural protein, yeast)
chain: MNAPDRFELFLLGEGESKLKIDPDTKAPNAVVITFEKEDHTLGNLIRAELLNDRKVLFAAYKVEHPFFARFKLRIQTTEGYDPKDALKNACNSIINKLGALKTNFETEWNLQTLAADDAF
notes: Rpb11, subunit of yeast Pol II; source: part of purified Pol II

Key:
[1] = target: T1, Ctr9-ΔC913; test: cross-linking; Pol II-Paf1C-TFIIS EC after SEC, 425 μg/ml, 0.5 mM BS3, 30 min, 30 °C; trypsin, Orbitrap Fusion LC-MS/MS, pLink, FDR 1%; conditions: both partners purified
[2] = target: T3, Rpb2 (Pol II subunit) (yeast, UniProt P08518 1-1224); test: as above; conditions: both partners purified
T3 construct: Rpb2, subunit of yeast Pol II; source: part of purified Pol II
T3 sequence (P08518 whole entry): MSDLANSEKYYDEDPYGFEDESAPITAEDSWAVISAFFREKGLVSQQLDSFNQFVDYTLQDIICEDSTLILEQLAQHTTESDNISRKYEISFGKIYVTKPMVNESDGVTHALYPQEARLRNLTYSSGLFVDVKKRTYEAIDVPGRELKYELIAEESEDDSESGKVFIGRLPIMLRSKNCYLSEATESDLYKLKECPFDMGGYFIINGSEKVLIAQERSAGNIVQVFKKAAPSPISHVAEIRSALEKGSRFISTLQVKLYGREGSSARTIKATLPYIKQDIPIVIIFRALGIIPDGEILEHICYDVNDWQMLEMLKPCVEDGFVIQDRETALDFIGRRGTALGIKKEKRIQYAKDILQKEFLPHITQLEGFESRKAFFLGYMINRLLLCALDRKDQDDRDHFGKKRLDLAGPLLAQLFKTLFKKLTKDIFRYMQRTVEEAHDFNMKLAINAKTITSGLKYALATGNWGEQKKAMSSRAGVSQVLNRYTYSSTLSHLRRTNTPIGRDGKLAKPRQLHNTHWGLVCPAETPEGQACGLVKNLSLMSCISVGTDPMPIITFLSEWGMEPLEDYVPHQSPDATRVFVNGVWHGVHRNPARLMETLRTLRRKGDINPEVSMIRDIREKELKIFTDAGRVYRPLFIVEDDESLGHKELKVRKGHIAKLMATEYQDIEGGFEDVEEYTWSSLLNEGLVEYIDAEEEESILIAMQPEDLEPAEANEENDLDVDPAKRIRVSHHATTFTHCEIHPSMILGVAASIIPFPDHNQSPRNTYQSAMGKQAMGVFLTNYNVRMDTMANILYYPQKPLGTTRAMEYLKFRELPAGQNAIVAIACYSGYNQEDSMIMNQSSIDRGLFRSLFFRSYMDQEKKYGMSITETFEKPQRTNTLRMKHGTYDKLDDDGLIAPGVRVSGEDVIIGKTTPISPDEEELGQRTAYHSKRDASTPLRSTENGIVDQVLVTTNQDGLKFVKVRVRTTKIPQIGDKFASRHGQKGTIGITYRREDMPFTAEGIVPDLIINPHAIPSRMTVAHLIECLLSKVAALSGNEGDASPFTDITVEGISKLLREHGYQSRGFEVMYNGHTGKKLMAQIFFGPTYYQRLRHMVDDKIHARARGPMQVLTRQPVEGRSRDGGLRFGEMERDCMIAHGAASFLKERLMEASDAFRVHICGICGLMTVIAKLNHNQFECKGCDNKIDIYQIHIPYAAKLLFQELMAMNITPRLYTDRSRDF

[3] = target: T2, Ctr9 (full length, C-terminal …); test: co-purification after coexpression (Ni-NTA, cation exchange, SEC); subunits coexpressed in E. coli from three vectors, cells colysed; Ni-NTA (hexahistidine tag on Ctr9), HiTrap SP cation exchange, Superose 6 size exclusion; SDS-PAGE, subunits confirmed by mass spectrometry; conditions: partners not purified
[4] = target: T4, Rpb1 (Pol II subunit) (yeast, UniProt P04050 1-1733); test: cross-linking; Pol II-Paf1C-TFIIS EC after SEC, 425 μg/ml, 0.5 mM BS3, 30 min, 30 °C; trypsin, Orbitrap Fusion LC-MS/MS, pLink, FDR 1%; conditions: both partners purified
T4 construct: Rpb1, largest subunit of yeast Pol II; source: part of purified Pol II
T4 sequence (P04050 whole entry, the tested form may be a part): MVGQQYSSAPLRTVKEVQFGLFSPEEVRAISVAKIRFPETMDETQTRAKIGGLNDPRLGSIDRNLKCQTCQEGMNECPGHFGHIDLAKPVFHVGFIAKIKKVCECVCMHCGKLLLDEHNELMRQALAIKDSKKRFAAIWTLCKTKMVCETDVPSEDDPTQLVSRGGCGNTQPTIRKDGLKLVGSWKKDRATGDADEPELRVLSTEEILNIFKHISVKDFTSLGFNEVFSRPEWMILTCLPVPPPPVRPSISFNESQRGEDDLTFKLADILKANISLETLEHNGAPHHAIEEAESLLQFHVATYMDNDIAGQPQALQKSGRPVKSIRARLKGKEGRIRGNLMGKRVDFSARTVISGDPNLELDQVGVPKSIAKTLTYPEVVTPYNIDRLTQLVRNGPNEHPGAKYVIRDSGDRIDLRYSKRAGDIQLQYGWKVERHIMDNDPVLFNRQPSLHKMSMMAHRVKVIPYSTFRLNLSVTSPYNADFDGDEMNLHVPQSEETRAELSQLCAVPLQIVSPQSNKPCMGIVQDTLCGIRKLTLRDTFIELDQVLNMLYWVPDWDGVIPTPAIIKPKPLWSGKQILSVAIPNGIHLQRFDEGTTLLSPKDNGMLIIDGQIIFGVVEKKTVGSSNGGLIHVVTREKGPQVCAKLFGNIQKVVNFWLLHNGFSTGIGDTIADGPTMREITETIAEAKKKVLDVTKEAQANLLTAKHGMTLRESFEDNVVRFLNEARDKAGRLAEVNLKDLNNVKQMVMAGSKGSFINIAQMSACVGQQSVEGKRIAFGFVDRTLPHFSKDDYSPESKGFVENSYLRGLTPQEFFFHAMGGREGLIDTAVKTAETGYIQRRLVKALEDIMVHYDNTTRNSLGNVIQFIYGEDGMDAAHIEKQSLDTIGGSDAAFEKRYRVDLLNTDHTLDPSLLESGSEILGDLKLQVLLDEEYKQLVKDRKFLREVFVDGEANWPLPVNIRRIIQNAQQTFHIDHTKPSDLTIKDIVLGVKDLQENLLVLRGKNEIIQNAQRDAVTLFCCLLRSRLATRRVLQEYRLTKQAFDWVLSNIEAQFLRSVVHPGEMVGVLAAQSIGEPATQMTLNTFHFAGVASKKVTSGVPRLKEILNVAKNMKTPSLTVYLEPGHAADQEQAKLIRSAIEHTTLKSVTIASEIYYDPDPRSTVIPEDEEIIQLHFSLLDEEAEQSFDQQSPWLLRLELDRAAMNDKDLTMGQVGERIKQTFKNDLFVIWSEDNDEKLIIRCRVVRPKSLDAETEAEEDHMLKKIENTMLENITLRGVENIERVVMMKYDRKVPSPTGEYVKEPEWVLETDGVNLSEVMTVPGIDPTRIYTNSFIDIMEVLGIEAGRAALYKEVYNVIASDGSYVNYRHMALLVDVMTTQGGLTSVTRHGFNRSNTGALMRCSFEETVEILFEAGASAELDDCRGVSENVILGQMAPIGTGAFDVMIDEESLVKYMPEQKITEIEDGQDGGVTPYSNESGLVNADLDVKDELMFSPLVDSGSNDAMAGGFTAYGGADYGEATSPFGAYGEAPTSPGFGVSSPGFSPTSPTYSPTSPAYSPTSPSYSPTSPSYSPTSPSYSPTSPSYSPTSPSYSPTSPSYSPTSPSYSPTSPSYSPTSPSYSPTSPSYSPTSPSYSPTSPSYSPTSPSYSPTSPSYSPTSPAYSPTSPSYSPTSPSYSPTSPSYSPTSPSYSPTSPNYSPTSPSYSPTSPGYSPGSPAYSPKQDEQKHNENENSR

[5] = target: T5, Rtf1 (S. cerevisiae, UniProt P53064 1-558); test: as above; conditions: both partners purified
T5 construct: Rtf1, S. cerevisiae, full length, amplified from genomic DNA; source: E. coli BL21 CodonPlus(DE3)RIL, coexpressed with Cdc73; in lysate and purified as part of Paf1C
T5 sequence (P53064 whole entry): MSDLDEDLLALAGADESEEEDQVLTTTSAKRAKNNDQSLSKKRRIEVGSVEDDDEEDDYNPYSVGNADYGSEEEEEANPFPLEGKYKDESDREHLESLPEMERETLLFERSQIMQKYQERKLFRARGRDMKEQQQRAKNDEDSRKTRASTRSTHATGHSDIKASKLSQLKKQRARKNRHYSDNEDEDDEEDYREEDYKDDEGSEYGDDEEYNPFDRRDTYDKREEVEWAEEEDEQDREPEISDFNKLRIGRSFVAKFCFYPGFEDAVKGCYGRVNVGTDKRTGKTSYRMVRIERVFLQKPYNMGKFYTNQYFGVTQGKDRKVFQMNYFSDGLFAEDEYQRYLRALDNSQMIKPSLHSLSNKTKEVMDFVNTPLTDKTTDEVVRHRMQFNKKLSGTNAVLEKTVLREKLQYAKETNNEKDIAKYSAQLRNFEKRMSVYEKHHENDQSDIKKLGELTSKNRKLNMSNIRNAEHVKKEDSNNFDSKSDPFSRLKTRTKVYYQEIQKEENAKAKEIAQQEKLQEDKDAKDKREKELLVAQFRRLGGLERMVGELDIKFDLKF

[6] = target: B1; test: as above; conditions: both partners purified

| binding result [1] | binding result [2] | binding result [3] | binding result [4] | binding result [5] | binding result [6] | Binder |
| --- | --- | --- | --- | --- | --- | --- |
| binds | binds | binds |  |  |  | B1 |
| binds | binds | binds | binds | binds |  | B2 |
|  |  |  |  |  | binds | B3 |
|  |  |  |  |  | binds | B4 |
